Laboratory results from PMC10349104.
Values joined by “and” are separate entries in the source; they are usually repeats but may differ in a detail not shown here. Identical values can stand only once.

Key:
[1] = molecular target: EVA-A(L39P) (Amblyomma americanum); experiment: SPR
[2] = molecular target: EVA-A(1-98) (A. americanum); experiment: SPR
[3] = molecular target: EVA-A(21-102) (A. americanum); experiment: SPR
[4] = molecular target: EVA-A(DN) (Amblyomma americanum); experiment: SPR
[5] = molecular target: EVA-A(Y44A) (Amblyomma americanum); experiment: SPR
[6] = molecular target: EVA-A(C8) (A. americanum); experiment: SPR
[7] = molecular target: EVA-A(C8) (Amblyomma americanum); experiment: SPR
[8] = molecular target: EVA-A(L39P) (A. americanum); experiment: SPR
[9] = molecular target: EVA-A(Y44A) (A. americanum); experiment: SPR
[10] = molecular target: EVA-A(DC) (Amblyomma americanum); experiment: SPR
EVA-4 = EVA-4 (UniProt P0C8E9); experiment: not stated; Kd of EVA-4 for human chemokines, three readings (source data of Supplementary Fig. 7); method and conditions not told for EVA-4

CCL24, sequence (O00175 27-119): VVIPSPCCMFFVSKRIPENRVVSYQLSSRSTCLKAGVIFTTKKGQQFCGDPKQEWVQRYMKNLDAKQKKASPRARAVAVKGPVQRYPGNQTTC
CCL18, sequence (P55774 21-89): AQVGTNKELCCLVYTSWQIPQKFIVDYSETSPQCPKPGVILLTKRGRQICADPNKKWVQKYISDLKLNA
CCL26, sequence (Q9Y258 24-94): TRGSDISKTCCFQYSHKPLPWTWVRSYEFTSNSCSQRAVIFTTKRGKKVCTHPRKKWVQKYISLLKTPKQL
CCL21, sequence (O00585 24-134): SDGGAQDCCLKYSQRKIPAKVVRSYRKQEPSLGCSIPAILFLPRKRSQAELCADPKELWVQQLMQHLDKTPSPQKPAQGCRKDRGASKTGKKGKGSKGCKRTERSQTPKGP
CCL17, sequence (Q92583 24-94): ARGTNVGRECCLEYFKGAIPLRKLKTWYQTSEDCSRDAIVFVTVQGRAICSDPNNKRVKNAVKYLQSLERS
CCL22, sequence (O00626 25-93): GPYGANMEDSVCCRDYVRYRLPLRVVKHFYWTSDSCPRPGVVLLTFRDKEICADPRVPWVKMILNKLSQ
CCL19, sequence (Q99731 22-98): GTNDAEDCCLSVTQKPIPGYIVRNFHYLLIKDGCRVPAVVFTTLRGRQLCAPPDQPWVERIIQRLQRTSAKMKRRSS

CCL17 (from UniProt Q92583 24-94) (ligand)
Kd [1]: 3.31 nM and 3.25 nM and 15.9 nM
Kd [2]: < 0.1 nM
Kd [3]: 1.04 nM
Kd [4]: 1.06 nM and 1.05 nM and 1.01 nM
Kd [5]: 65.8 nM and 104 nM and 15.8 nM
Kd [6]: 97.1 nM
Kd [7]: 77 nM and 67.5 nM and 147 nM
Kd [8]: 7.49 nM
Kd [9]: 61.9 nM

CCL18 (from UniProt P55774 21-89) (ligand)
Kd [1]: 0.00439 nM and 0.00871 nM and 0.0273 nM
kon [1]: 3.31e+06 M⁻¹ s⁻¹ and 3.54e+06 M⁻¹ s⁻¹ and 4.37e+06 M⁻¹ s⁻¹
Kd [2]: < 0.1 nM
koff [2]: < 0.0001 s⁻¹
kon [2]: 443000 M⁻¹ s⁻¹
Kd [3]: < 0.1 nM
koff [3]: < 0.0001 s⁻¹
kon [3]: 1.59e+06 M⁻¹ s⁻¹
Kd [4]: 0.000563 nM and 0.000228 nM and 0.000552 nM
koff [4]: 1.04e-06 s⁻¹ and 4.52e-07 s⁻¹ and 5.08e-07 s⁻¹
kon [4]: 1.86e+06 M⁻¹ s⁻¹ and 1.98e+06 M⁻¹ s⁻¹ and 921000 M⁻¹ s⁻¹
Kd [5]: 0.0553 nM and 0.0303 nM and 0.0163 nM
koff [5]: 7.08e-05 s⁻¹ and 5.3e-05 s⁻¹ and 3.33e-05 s⁻¹
kon [5]: 1.28e+06 M⁻¹ s⁻¹ and 1.75e+06 M⁻¹ s⁻¹ and 2.05e+06 M⁻¹ s⁻¹
Kd [6]: < 0.1 nM
koff [6]: < 0.0001 s⁻¹
kon [6]: 837000 M⁻¹ s⁻¹
Kd [7]: 0.0591 nM and 0.0302 nM and 0.0473 nM
koff [7]: 5.57e-05 s⁻¹ and 2.29e-05 s⁻¹ and 3.83e-05 s⁻¹
kon [7]: 943000 M⁻¹ s⁻¹ and 758000 M⁻¹ s⁻¹ and 810000 M⁻¹ s⁻¹
Kd [8]: < 0.1 nM
koff [8]: < 0.0001 s⁻¹
kon [8]: 3.74e+06 M⁻¹ s⁻¹
Kd [9]: < 0.1 nM
koff [9]: < 0.0001 s⁻¹
kon [9]: 1.69e+06 M⁻¹ s⁻¹
Kd [10]: 0.00073 nM and 0.00413 nM and 0.00277 nM
kon [10]: 496000 M⁻¹ s⁻¹ and 427000 M⁻¹ s⁻¹ and 406000 M⁻¹ s⁻¹

CCL19 (from UniProt Q99731 22-98) (ligand)
Kd [1]: 1.4 nM and 1 nM and 1.62 nM
koff [1]: 0.000327 s⁻¹ and 0.000349 s⁻¹ and 0.000407 s⁻¹
kon [1]: 233000 M⁻¹ s⁻¹ and 348000 M⁻¹ s⁻¹ and 252000 M⁻¹ s⁻¹
Kd [2]: 0.16 nM
koff [2]: 3e-05 s⁻¹
kon [2]: 144000 M⁻¹ s⁻¹
Kd [3]: 1.58 nM
koff [3]: 0.00053 s⁻¹
kon [3]: 342000 M⁻¹ s⁻¹
Kd [4]: 1.34 nM and 1.49 nM and 1.92 nM
koff [4]: 0.000471 s⁻¹ and 0.000557 s⁻¹ and 0.000576 s⁻¹
kon [4]: 352000 M⁻¹ s⁻¹ and 373000 M⁻¹ s⁻¹ and 301000 M⁻¹ s⁻¹
Kd [5]: 0.676 nM and 0.642 nM and 0.935 nM
koff [5]: 0.000322 s⁻¹ and 0.000363 s⁻¹ and 0.000401 s⁻¹
kon [5]: 477000 M⁻¹ s⁻¹ and 566000 M⁻¹ s⁻¹ and 428000 M⁻¹ s⁻¹
Kd [6]: 16.1 nM
koff [6]: 0.00345 s⁻¹
kon [6]: 245000 M⁻¹ s⁻¹
Kd [7]: 13.2 nM and 15.6 nM and 19.7 nM
Kd [8]: 1.34 nM
koff [8]: 0.00036 s⁻¹
kon [8]: 278000 M⁻¹ s⁻¹
Kd [9]: 0.75 nM
koff [9]: 0.00036 s⁻¹
kon [9]: 490000 M⁻¹ s⁻¹
Kd [10]: 0.209 nM and 0.0874 nM and 0.187 nM
koff [10]: 3.17e-05 s⁻¹ and 1.17e-05 s⁻¹ and 2.75e-05 s⁻¹
kon [10]: 151000 M⁻¹ s⁻¹ and 134000 M⁻¹ s⁻¹ and 147000 M⁻¹ s⁻¹

CCL21 (from UniProt O00585 24-134) (ligand)
Kd [1]: 24.3 nM and 19.8 nM and 29.4 nM
koff [1]: 0.00331 s⁻¹ and 0.00445 s⁻¹ and 0.00676 s⁻¹
kon [1]: 136000 M⁻¹ s⁻¹ and 225000 M⁻¹ s⁻¹ and 230000 M⁻¹ s⁻¹
Kd [2]: 17.8 nM
koff [2]: 0.00233 s⁻¹
kon [2]: 126000 M⁻¹ s⁻¹
Kd [3]: 47.5 nM
koff [3]: 0.0106 s⁻¹
kon [3]: 224000 M⁻¹ s⁻¹
Kd [4]: 51.1 nM and 51.4 nM and 40 nM
koff [4]: 0.0125 s⁻¹ and 0.0092 s⁻¹ and 0.00995 s⁻¹
kon [4]: 245000 M⁻¹ s⁻¹ and 179000 M⁻¹ s⁻¹ and 248000 M⁻¹ s⁻¹
Kd [5]: 135 nM and 40.8 nM and 180 nM
koff [5]: 0.00431 s⁻¹ and 0.00219 s⁻¹ and 0.00417 s⁻¹
kon [5]: 32000 M⁻¹ s⁻¹ and 53800 M⁻¹ s⁻¹ and 23100 M⁻¹ s⁻¹
Kd [8]: 24.5 nM
koff [8]: 0.00484 s⁻¹
kon [8]: 197000 M⁻¹ s⁻¹
Kd [9]: 119 nM
koff [9]: 0.00356 s⁻¹
kon [9]: 36000 M⁻¹ s⁻¹
Kd [10]: 30.1 nM and 12.1 nM and 11.4 nM
koff [10]: 0.00233 s⁻¹ and 0.00174 s⁻¹ and 0.00177 s⁻¹
kon [10]: 77500 M⁻¹ s⁻¹ and 144000 M⁻¹ s⁻¹ and 154000 M⁻¹ s⁻¹

CCL22 (from UniProt O00626 25-93) (ligand)
Kd [1]: 1.64 nM and 1.17 nM and 1.57 nM
koff [1]: 0.00125 s⁻¹ and 0.00151 s⁻¹ and 0.00165 s⁻¹
kon [1]: 763000 M⁻¹ s⁻¹ and 1.28e+06 M⁻¹ s⁻¹ and 1.05e+06 M⁻¹ s⁻¹
Kd [2]: 125 nM
koff [2]: 0.00084 s⁻¹
kon [2]: 29000 M⁻¹ s⁻¹
Kd [3]: 61.6 nM
koff [3]: 0.00161 s⁻¹
kon [3]: 26000 M⁻¹ s⁻¹
Kd [4]: 64.9 nM and 73.9 nM and 46 nM
koff [4]: 0.00186 s⁻¹ and 0.00173 s⁻¹ and 0.00125 s⁻¹
kon [4]: 28700 M⁻¹ s⁻¹ and 23400 M⁻¹ s⁻¹ and 27200 M⁻¹ s⁻¹
Kd [5]: 6.2 nM and 14.4 nM and 13.1 nM
koff [5]: 0.0056 s⁻¹ and 0.00713 s⁻¹ and 0.0118 s⁻¹
kon [5]: 903000 M⁻¹ s⁻¹ and 496000 M⁻¹ s⁻¹ and 899000 M⁻¹ s⁻¹
Kd [8]: 1.46 nM
koff [8]: 0.00292 s⁻¹
kon [8]: 1.03e+06 M⁻¹ s⁻¹
Kd [9]: 11.2 nM
koff [9]: 0.00818 s⁻¹
kon [9]: 766000 M⁻¹ s⁻¹
Kd [10]: 125 nM
kon [10]: 37600 M⁻¹ s⁻¹ and 12800 M⁻¹ s⁻¹

CCL23 (ligand)
Kd (EVA-4): 7.43 nM and 7.41 nM and 7.39 nM
Kd [1]: 1.15 nM and 0.794 nM and 1.49 nM
koff [1]: 0.000123 s⁻¹ and 0.00016 s⁻¹ and 0.000168 s⁻¹
kon [1]: 107000 M⁻¹ s⁻¹ and 201000 M⁻¹ s⁻¹ and 113000 M⁻¹ s⁻¹
Kd [4]: 0.168 nM and 0.972 nM and 0.384 nM
kon [4]: 53100 M⁻¹ s⁻¹ and 56200 M⁻¹ s⁻¹ and 152000 M⁻¹ s⁻¹
Kd [5]: 15.2 nM and 26.4 nM and 14.7 nM
koff [5]: 0.00168 s⁻¹ and 0.00185 s⁻¹ and 0.00176 s⁻¹
kon [5]: 111000 M⁻¹ s⁻¹ and 70100 M⁻¹ s⁻¹ and 120000 M⁻¹ s⁻¹
Kd [7]: 13 nM and 34.4 nM and 13.6 nM
koff [7]: 0.00116 s⁻¹ and 0.00157 s⁻¹ and 0.0012 s⁻¹
kon [7]: 89700 M⁻¹ s⁻¹ and 45800 M⁻¹ s⁻¹ and 87600 M⁻¹ s⁻¹
Kd [10]: 0.105 nM and 0.44 nM and 0.794 nM
kon [10]: 144000 M⁻¹ s⁻¹ and 85600 M⁻¹ s⁻¹ and 201000 M⁻¹ s⁻¹

CCL24 (from UniProt O00175 27-119) (ligand)
Kd [1]: 9.33 nM and 9.02 nM and 10.4 nM
koff [1]: 0.000856 s⁻¹ and 0.0013 s⁻¹ and 0.00101 s⁻¹
kon [1]: 91800 M⁻¹ s⁻¹ and 144000 M⁻¹ s⁻¹ and 96500 M⁻¹ s⁻¹
Kd [2]: 28.1 nM
koff [2]: 0.00111 s⁻¹
kon [2]: 36000 M⁻¹ s⁻¹
Kd [3]: 19.9 nM
koff [3]: 0.00091 s⁻¹
kon [3]: 46000 M⁻¹ s⁻¹
Kd [4]: 19.3 nM and 20.8 nM and 19.7 nM
koff [4]: 0.000922 s⁻¹ and 0.00125 s⁻¹ and 0.000564 s⁻¹
kon [4]: 47700 M⁻¹ s⁻¹ and 60300 M⁻¹ s⁻¹ and 28700 M⁻¹ s⁻¹
Kd [5]: 46.6 nM and 88.7 nM and 70.7 nM
koff [5]: 0.00131 s⁻¹ and 0.0022 s⁻¹ and 0.00184 s⁻¹
kon [5]: 28200 M⁻¹ s⁻¹ and 24800 M⁻¹ s⁻¹ and 26000 M⁻¹ s⁻¹
Kd [6]: 447 nM
koff [6]: 0.00869 s⁻¹
kon [6]: 18000 M⁻¹ s⁻¹
Kd [7]: 697 nM and 394 nM and 252 nM
kon [7]: 23800 M⁻¹ s⁻¹ and 14800 M⁻¹ s⁻¹ and 14400 M⁻¹ s⁻¹
Kd [8]: 9.58 nM
koff [8]: 0.00121 s⁻¹
kon [8]: 111000 M⁻¹ s⁻¹
Kd [9]: 68.6 nM
koff [9]: 0.00179 s⁻¹
kon [9]: 26000 M⁻¹ s⁻¹
Kd [10]: 23.6 nM and 30.9 nM and 29.7 nM
koff [10]: 0.00111 s⁻¹ and 0.000885 s⁻¹ and 0.000951 s⁻¹
kon [10]: 47000 M⁻¹ s⁻¹ and 28600 M⁻¹ s⁻¹ and 32100 M⁻¹ s⁻¹

CCL26 (from UniProt Q9Y258 24-94) (ligand)
Kd [1]: 0.183 nM and 0.176 nM and 0.197 nM
koff [1]: 0.000504 s⁻¹ and 0.000271 s⁻¹ and 0.000714 s⁻¹
kon [1]: 2.75e+06 M⁻¹ s⁻¹ and 1.53e+06 M⁻¹ s⁻¹ and 3.62e+06 M⁻¹ s⁻¹
Kd [2]: 1.89 nM
koff [2]: 0.00048 s⁻¹
kon [2]: 357000 M⁻¹ s⁻¹
Kd [3]: 9.24 nM
koff [3]: 0.00049 s⁻¹
kon [3]: 53000 M⁻¹ s⁻¹
Kd [4]: 9.99 nM and 8.95 nM and 8.79 nM
koff [4]: 0.000506 s⁻¹ and 0.000395 s⁻¹ and 0.000556 s⁻¹
kon [4]: 50600 M⁻¹ s⁻¹ and 44200 M⁻¹ s⁻¹ and 63300 M⁻¹ s⁻¹
Kd [5]: 3.9 nM and 3.21 nM and 1.71 nM
koff [5]: 0.00136 s⁻¹ and 0.000659 s⁻¹ and 0.00101 s⁻¹
kon [5]: 348000 M⁻¹ s⁻¹ and 205000 M⁻¹ s⁻¹ and 590000 M⁻¹ s⁻¹
Kd [6]: 70.9 nM
koff [6]: 0.00099 s⁻¹
kon [6]: 14000 M⁻¹ s⁻¹
Kd [7]: 56.4 nM and 69.6 nM and 86.6 nM
koff [7]: 0.00101 s⁻¹ and 0.000925 s⁻¹ and 0.00104 s⁻¹
kon [7]: 17900 M⁻¹ s⁻¹ and 13300 M⁻¹ s⁻¹ and 12000 M⁻¹ s⁻¹
Kd [8]: 0.19 nM
koff [8]: 0.00078 s⁻¹
kon [8]: 2.63e+06 M⁻¹ s⁻¹
Kd [9]: 2.94 nM
koff [9]: 0.00101 s⁻¹
kon [9]: 381000 M⁻¹ s⁻¹
Kd [10]: 1.25 nM and 1.65 nM and 2.78 nM
koff [10]: 0.000481 s⁻¹ and 0.000673 s⁻¹ and 0.000777 s⁻¹
kon [10]: 384000 M⁻¹ s⁻¹ and 407000 M⁻¹ s⁻¹ and 280000 M⁻¹ s⁻¹
